Here are results for three molecules from paper PMC7347944 (Communications Biology, 2020).

The chains are these.
B1: huPrP(23−144) (domain or fragment)
chain: KKRPKPGGWNTGGSRYPGQGSPGGNRYPPQGGGGWGQPHGGGWGQPHGGGWGQPHGGGWGQPHGGGWGQGGGTHSQWNKPSKPKTNMKHMAGAAAAGAVVGGLGGYMLGSAMSRPIIHFGSD
B2: full-length huPrP(23−230) (natural protein)
chain: not shown
B3: huPrP(23−111) (domain or fragment)
chain: KKRPKPGGWNTGGSRYPGQGSPGGNRYPPQGGGGWGQPHGGGWGQPHGGGWGQPHGGGWGQPHGGGWGQGGGTHSQWNKPSKPKTNMKH

The test has as its target T1, amyloid-β oligomers (UniProt P05067 672-713).
T1 construct: also called AβO; Aβ oligomers
Nature of the test: co-sedimentation. The following applies: both partners purified.
On to B1, for which the binding result is “binds”.
As to B2, the binding result is listed as “binds”.
Consider B3, for which the binding result is listed as “binds”.
